Drawing on paper PMC8257255, “Soluble Fas ligand drives autoantibody-induced arthritis by binding to DR5/TRAIL-R2” (eLife, 2021), this text covers Kd for one molecule.

The target in the experiment is T1, Recombinant Human TRAIL R2/TNFRSF10B Fc Chimera Protein (human, UniProt O14763 56-210).
T1 construct: TNFRSF10B (DR5, TRAIL R2), human, fused to Fc; also called rhDR5–Fc; DR5–Fc; source: bought: R&D Systems (631-T2)
Put plainly: SPR; Biacore T100; recombinant DR5 (R&D 631-T2-100) coupled to a CM5 chip in 10 mM sodium acetate pH 5.5; recombinant FasL or TRAIL passed over at 30 μL/min for 120 s; empty flow cell subtracted; equilibrium affinity measurements. The note with it: both partners purified.

B1: recombinant human soluble Fas ligand (His-tagged) (ligand, UniProt P48023 130-281, looked up)
chain: QIGHPSPPPEKKELRKVAHLTGKSNSRSMPLEWEDTYGIVLLSGVKYKKGGLVINETGLYFVYSKVYFRGQSCNNLPLSHKVYMRNSKYPQDLVMMEGKMMSYCTTGQMWARSSYLGAVFNLTSADHLYVNVSELSLVNFEESQTFFGLYKL
notes: Fas ligand (TNFSF6), human, soluble recombinant form; also called sFasL; rhFasL; source: bought: R&D Systems (126-FL)
In the case of B1, the dissociation constant (Kd) worked out at 1.23 pM.
